Substitutions are numbered along the chain they refer to. Names may count otherwise.
B1: Lp Nox (Lactiplantibacillus pentosus; D177W/G178E/I158S/V240L) (protein)
chain: MKVIVIGCTHAGTAAVNQILASNPETDVTIYERNDNVSFLSCGIALYLGGEVADPQGLFYSSPEQLAKLGANVHMQHDVTDVDTENHEITVTDLKTGESKKDYYDKLVVTTGSWPVIPPIDGIDSPNVYLCKNWTHAQSLWEAAKPAKRVIVIGGGYSGTELVEAYQKQGKEVTLIWELPRILNKYLDKGFTDRVEKDFVDHGIKMALNQMVKGFSDDGKEVTVKTDKGSYTADMAILCLGFRPNTSLLKGKVDMNPNGSIKTNDYMQTSDPDIYGAGDSVAVHYNPTKKDAYIPLATNAVRQGTLVGLNIFKPTRKYMGTQSTSGLMLFGKTIVSSGMTLEHAQAEKVPAEAVTFEDNYRPEFMPTTKPVLMQLVYNPETREILGAQFMSEHDVSQSANVISVMIQNHNTIDDLGFVDMFFQPIYDRPFNYLNLLGQAAIAHAAEKVTE
notes: recombinant from E. coli BL21(DE3), pQElac vector (pLS504), purified on His-Spin column (His-tag implied); FAD added at lysis
B2: Lp Nox (Lactiplantibacillus pentosus) (protein)
chain: B1 chain with S158I, W177D, E178G, L240V
notes: as for B1
B3: Lp Nox (Lactiplantibacillus pentosus; D177W/I158S/V240L) (protein)
chain: B1 chain with E178G
notes: as for B1

Experiments:
[1] = target: T1, XenA (Pseudomonas putida, UniProt Q9R9V9); assay: specific activity, absorbance at […] nm; assay type: biochemical; conditions: 0.2 mM reduced cofactor, 5 mM ketoisophorone, 200 mM potassium phosphate pH 7.5, 37 °C
T1 construct: purified recombinant enzyme (plasmid pEK102 carries XenA WT)

[2] = substrate: NC(=O)C1=CN([C@@H]2O[C@H](COP(=O)(O)OP(=O)(O)OC[C@H]3O[C@@H](n4cnc5c(N)ncnc54)[C@H](OP(=O)(O)O)[C@@H]3O)[C@@H](O)[C@H]2O)C=CC1; assay: purified protein; assay type: biochemical, Lactiplantibacillus pentosus; conditions: 50 mM Tris-HCl pH 7.0, 37 °C, apparent
[3] = substrate: NC(=O)C1=CN([C@@H]2O[C@H](COP(=O)(O)OP(=O)(O)OC[C@H]3O[C@@H](n4cnc5c(N)ncnc54)[C@H](O)[C@@H]3O)[C@@H](O)[C@H]2O)C=CC1; assay: purified protein; assay type: biochemical, Lactiplantibacillus pentosus; conditions: 50 mM Tris-HCl pH 7.0, 37 °C, apparent

T1 sequence (Q9R9V9 entry or part of it): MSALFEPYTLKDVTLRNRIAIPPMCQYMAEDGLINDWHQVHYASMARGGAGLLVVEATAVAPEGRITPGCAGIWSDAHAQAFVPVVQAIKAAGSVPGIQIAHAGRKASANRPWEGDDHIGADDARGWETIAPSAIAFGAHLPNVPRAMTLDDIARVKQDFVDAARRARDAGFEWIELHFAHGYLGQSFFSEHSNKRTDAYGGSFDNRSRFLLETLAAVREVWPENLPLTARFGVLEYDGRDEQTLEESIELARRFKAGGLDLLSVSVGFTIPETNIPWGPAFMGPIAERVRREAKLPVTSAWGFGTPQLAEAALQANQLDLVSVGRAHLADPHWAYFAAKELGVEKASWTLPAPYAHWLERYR

Molecule | specific activity, absorbance at 340 nm [1] | Km [2] [µM] | kcat [2] [s⁻¹] | kcat/Km [2] [M⁻¹ s⁻¹] | Km [3] [µM] | kcat [3] [s⁻¹] | kcat/Km [3] [M⁻¹ s⁻¹]
NC(=O)C1=CN([C@@H]2O[C@H](COP(=O)(O)O)[C@@H](O)[C@H]2O)C=CC1 [NMNH] | Specific activities of redox partners toward NMNH. |  |  |  |  |  | 
B1 |  | 1100 ± 100 | 28 ± 1 | 26000 ± 1000 | 1900 ± 40 | 31 ± 1 | 17000 ± 200
B2 |  | 1900 ± 200 | 18 ± 2 | 9300 ± 200 | 25 ± 1 | 21 ± 0.3 | 840000 ± 10000
B3 |  | 890 ± 40 | 27 ± 2 | 31000 ± 1000 | 1700 ± 200 | 47 ± 4 | 28000 ± 1000
